Test results as given in US20260250410A1 (SICHUAN HUIYU PHARMACEUTICAL, published 2026).

T1: HuCDCP1-B (human, UniProt Q9H5V8 343-667)
T1 construct: range 343-667; expressed in HEK-293T, purified by Fc/his tag; also called human CDCP1-B; membrane-proximal region of CDCP1; not shown: Fc or his tag
T1 sequence (looked up): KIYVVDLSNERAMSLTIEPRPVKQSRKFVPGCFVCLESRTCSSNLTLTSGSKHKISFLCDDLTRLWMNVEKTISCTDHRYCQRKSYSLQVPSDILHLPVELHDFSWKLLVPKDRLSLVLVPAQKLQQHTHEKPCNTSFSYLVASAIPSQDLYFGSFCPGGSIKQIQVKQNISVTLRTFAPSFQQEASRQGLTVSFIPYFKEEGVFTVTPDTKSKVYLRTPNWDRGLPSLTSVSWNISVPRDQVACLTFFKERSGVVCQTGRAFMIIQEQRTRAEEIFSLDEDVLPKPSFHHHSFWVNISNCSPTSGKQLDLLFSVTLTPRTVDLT

T2: HuCDCP1-C (human, UniProt Q9H5V8 30-667)
T2 construct: range 30-667; expressed in HEK-293T, purified by Fc/his tag; also called human CDCP1-C; full-length extracellular domain of human CDCP1; not shown: Fc or his tag
T2 sequence (looked up): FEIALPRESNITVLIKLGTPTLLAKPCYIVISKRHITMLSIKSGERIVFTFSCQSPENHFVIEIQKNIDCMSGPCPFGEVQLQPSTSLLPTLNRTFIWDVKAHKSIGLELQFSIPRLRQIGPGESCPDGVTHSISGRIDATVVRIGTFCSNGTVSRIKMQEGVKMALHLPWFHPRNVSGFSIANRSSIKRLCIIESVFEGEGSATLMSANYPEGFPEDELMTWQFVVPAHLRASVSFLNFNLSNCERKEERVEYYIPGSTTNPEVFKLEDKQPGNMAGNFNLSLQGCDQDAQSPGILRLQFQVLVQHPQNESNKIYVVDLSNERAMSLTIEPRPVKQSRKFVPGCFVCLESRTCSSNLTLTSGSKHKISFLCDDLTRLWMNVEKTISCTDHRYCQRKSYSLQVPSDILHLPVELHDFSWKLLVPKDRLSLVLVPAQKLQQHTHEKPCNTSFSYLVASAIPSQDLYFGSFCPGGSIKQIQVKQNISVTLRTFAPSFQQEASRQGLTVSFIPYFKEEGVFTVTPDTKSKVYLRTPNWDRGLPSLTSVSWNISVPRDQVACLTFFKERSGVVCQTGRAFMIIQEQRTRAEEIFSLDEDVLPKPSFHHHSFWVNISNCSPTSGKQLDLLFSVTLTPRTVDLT

T3: huCDCP1-his (human, UniProt Q9H5V8 30-667, limits assumed)
T3 construct: also called human CDCP1 antigen; not shown: his tag
T3 sequence (looked up): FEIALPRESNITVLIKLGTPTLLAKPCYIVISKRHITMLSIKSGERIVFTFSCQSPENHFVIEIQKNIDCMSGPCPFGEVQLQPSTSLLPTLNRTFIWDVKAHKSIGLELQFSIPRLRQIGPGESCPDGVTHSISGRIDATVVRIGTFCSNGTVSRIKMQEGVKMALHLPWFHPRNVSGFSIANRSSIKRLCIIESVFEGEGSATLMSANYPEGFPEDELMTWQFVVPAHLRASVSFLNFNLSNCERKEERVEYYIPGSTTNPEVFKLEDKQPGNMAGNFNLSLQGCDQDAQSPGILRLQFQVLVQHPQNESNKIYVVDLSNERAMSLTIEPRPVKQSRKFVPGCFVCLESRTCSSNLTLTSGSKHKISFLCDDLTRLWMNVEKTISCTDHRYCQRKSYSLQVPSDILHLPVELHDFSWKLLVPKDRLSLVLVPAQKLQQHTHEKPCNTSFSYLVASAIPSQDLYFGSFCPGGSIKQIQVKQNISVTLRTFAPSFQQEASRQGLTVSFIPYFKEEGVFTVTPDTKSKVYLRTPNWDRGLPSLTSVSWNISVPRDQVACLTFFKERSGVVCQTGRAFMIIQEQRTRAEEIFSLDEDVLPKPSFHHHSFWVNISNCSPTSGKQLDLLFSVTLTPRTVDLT

T4: human CDCP1 on tumor cells (human, UniProt Q9H5V8 30-836)
T4 construct: whole, on cells; cell line is named under assay or readout
T4 sequence (looked up): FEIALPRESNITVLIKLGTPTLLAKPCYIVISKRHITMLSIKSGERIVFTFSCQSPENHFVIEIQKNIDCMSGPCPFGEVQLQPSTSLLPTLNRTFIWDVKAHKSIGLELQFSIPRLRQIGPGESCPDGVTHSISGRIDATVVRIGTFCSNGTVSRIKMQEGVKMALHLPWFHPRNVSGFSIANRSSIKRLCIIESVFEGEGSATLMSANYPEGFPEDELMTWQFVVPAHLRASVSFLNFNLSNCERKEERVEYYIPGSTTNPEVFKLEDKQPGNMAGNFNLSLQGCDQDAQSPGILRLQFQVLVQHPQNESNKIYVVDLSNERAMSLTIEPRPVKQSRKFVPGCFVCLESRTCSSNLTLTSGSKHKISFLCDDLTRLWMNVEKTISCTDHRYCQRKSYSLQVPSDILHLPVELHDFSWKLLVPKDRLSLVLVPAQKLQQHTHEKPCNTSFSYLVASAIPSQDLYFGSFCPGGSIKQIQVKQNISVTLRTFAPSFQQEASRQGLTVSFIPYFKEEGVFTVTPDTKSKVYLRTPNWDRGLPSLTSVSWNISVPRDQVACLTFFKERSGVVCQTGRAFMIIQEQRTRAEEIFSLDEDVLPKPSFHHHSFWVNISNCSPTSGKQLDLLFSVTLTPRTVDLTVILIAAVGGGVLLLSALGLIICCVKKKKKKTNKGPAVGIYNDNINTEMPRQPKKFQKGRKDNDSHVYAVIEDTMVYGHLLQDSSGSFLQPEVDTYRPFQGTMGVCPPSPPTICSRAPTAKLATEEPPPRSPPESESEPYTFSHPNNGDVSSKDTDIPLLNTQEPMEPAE


How the values were obtained:
HuCDCP1-B = molecular target: T1, HuCDCP1-B; experiment: ELISA, coated antigen
Experimental: (§1) The candidate antibodies obtained from Example 6 were subjected to gene cloning, constructed into an expression vector for a small amount of expression in CHO cells, and purified with an Fc affinity column (AT Protein A Diamond Plus. No. AA402312). Antibody purity was analyzed by HPLC and determined by Nanodrop. High-throughput affinity assay was carried out for a small amount of antibodies by Caterra. […] At the same time, 2 μg/ml antigen human CDCP1-C and 2 μg/ml human CDCP1-B were used for coating, and the antigen-antibody binding capacity was tested by ELISA for verification.

HuCDCP1-C = molecular target: T2, HuCDCP1-C; experiment: ELISA, coated antigen
Experimental: as §1

huCDCP1-his = molecular target: T3, huCDCP1-his; experiment: SPR (Caterra), antigen immobilized
Experimental: as §1

[1] = molecular target: T4, human CDCP1 on tumor cells; experiment: flow cytometry, MDA-MB-231 cells, 1.5 µg/ml
Experimental: Flow cytometry was used to detect the binding capacity of antibody to tumor cells. MDA-MB-231 cells were subjected to digestion with 5 mM EDTA, centrifuged, and counted, the cells were resuspended with FACS buffer (PBS+2% FBS). Cell density was adjusted to 4×10⁵/ml, 50 μL (2×10⁴ tumor cells) were added per well, an Fc blocker (Human TruStain FcX™, Biolegend, 422302) was added for blocking at room temperature for 10 mins, then the antibody to be tested was added at a final concentration of 1.5 μg/ml. The mixture was incubated out at 4° C. for 30 mins, centrifuged and washed, a secondary antibody (PE anti-human IgG Fc Antibody, Biolegend, 410708) was added for incubation, and then detection was performed using a flow cytometer. Geo-MFI was used as the preliminary criterion for determining antibody-cell binding.

Binder	EC50 (HuCDCP1-B) [nM]	EC50 (HuCDCP1-C) [nM]	Kd (huCDCP1-his) [nM]	binding result [1]
SB5 (antibody, V domains shown, single B cell antibody, expressed in CHO) VH: QVQLRESGPGLVAPSQSLSITCTVSGFSLTDFGVNWVRQPPGKGLEWLGIIWANGRIEYNSALKSRLSISKDNSRSQVFLKLNSLQTDDTARYYCARDHDYDVEAMDYWGQGTSVTVSA VL: QIVLTQSPAIKSASPGEKVTMTCSASSSVIYMHWYQQKSGSSPKRWIYDTSKLASGVPVRFSGSGSGTSYSLTISTMEAEDAATYYCQQWSSYPPTFGGGTKVEIK	0.208	0.413	0.835	
SB9 (antibody, V domains shown, single B cell antibody, expressed in CHO) VH: DVKLVESGGGLVKPGGSLKLSCAASGFTFSSFTMSWVRQTPEKRLEWVATISSSGSYTYYPDSVKGRFTISRDNAKNTLYLQMSSLKSEDTAMYYCTSPDYYGRSYGYFDYWGQGTTLTVSS VL: not shown				binds
